{"source": "patent US20040175758", "target": "T1, Q2L, synthetic peptide Ac-LATLSHCIELMVKR-NH2 (L-amino acids)", "T1 chain": "LATLSHCIELMVKR", "data": [{"protein": "Recombinant FLAG-tagged human GPBP (expressed in yeast, FLAG-affinity purified) (protein) MSDNQSWNSSGSEEDPETESGPPVERCGVLSKWTNYIHGWQDRWVVLKNNALSYYKSEDETEYGCRGSICLSKAVITPHDFDECRFDISVNDSVWYLRAQDPDHRQQWIDAIEQHKTESGYGSESSLRRHGSMVSLVSGASGYSATSTSSFKKGHSLREKLAEMETFRDILCRQVDTLQKYFDACADAVSKDELQRDKVVEDDEDDFPTTRSDGDFLHSTNGNKEKLFPHVTPKGINGIDFKGEAITFKATTAGILATLSHCIELMVKREDSWQKRLDKETEKKRRTEEAYKNAMTELKKKSHFGGPDYEEGPNSLINEEEFFDAVEAALDRQDKIEEQSQSEKVRLHWPTSLPSGDAFSSVGTHRFVQKPYSRSSSMSSIDLVSASDDVHRFSSQVEEMVQNHMTYSLQDVGGDANWQLVVEEGEMKVYRREVEENGIVLDPLKATHAVKGVTGHEVCNYFWNVDVRNDWETTIENFHVVETLADNAIIIYQTHKRVWPASQRDVLYLSVIRKIPALTENDPETWIVCNFSVDHDSAPLNNRCVRAKINVAMICQTLVSPPEGNQEISRDNILCKITYVANVNPGGWAPASVLRAVAKREYPKFLKRFTSYVQEKTAGKPILF", "values": [{"measurement": "GPBP autophosphorylation in vitro", "result": "efficiently inhibited GPBP autophosphorylation"}]}]}
